Test results taken from the supplement of paper PMC9170038.

Test system: MS2 coat protein
Assay: apparent KD of MS2 coat protein, switch ON state; designed switch direction (-1 OFF switch, 1 ON switch): 1; higher = weaker reporter binding
Details: FMN input: 0 or 200 uM; Eterna round: R93 (includes R88 designs)
Summary of the method: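 For every design, apparent KD is the median of normalised binding-curve fits from its clusters. The RNA switches were transcribed on-chip from Illumina sequencing clusters and titrated with SNAP-549-labelled MS2 coat protein (twofold steps, 0.7 or 1.5 nM to 3 µM; 0.8–1.5 h to 10–20 min per step). Titrations used 100 mM Tris-HCl pH 7.5, 80 mM KCl, 4 mM MgCl2, without or with constant ligand.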

Sequence	apparent KD of MS2 coat protein [nM]
AAUACACAUGGUCAGGAUAUCGCAGCUAGGACAUGAGGAUCACCCAUGUCGUACGUAACCGUAAAUGAGAAGGGACAGGGUGACC [JR_SS002_Sub408]	145
AAAAAAAAAACUCAGGAUAUAGAUUGUAGAACAUGAGGAUCACCCAUGUAGUGAAAGAAGAGAGACUAGAAGGGAGUAAAAAAAAA [Same State 2 #3]	43.2
UUUAAUUAUACGAAGGAUAUCGGUAAUUAGACAUGAGGAUCACCCAUGUUAUAUGGUUCCAUAUUCGAGAAGGUCGCGGGUGAAC [JR_SS002_Sub508]	45.6
AGAAGACAUGAGGAUCACCCAUGUGGGAAUAUGGGAGGAUAUACAAAGACGAGAGUCAGAGUAGAAGGCCUAGGAG [salish99-SS1-093]	63.3
AACAAUCUAUCUGAGGAUAUCAUGUCAAAGACAUGAGGAUCACCCAUGUCUAGGAAAACUAGAUAUGAGAAGGCAGAUAGAUUGA [SS2 :P - 597]	23.2
CAGGGACAUGAGGAUCACCCAUGUGGGAUUAUGGGAGGAUAUACAAAGACGAGAGUCAGAGUAGAAGGCCUAGGAC [salish99-ss1-128]	37.3
CUUAGACAUGAGGAUCACCCAUGUCGAACAAACAAAGGAUAUGGGAGCCGAAGACGGCUAUUAGAAGGUUGCAAAA [Anrioned]	28
AAAAAAAAAGUCGAGGAUAUCCACAUGGCGACAUGAGGAUCACCCAUGUGAAGAAAAGCACAUGAGGAGAAGGCGACAAAAAAAA [Same State 2.7a (Tightrope mod)]	32.7
AUAAAACAUGAGGAUCACCCAUGUAGAAAUAUGGGAGGAUAUACAAAGACGAAAGUCGAGGUAGAAGGCCUAAAAG [Mat - Same State 1 - Meechl mod - D121]	21.3
AAAAGACAUGAGGAUCACCCAUGUCAAAACAUAGGAGGAUAUGUCGUGAAAAAAGACUUGGCAGAAGGCCUUUGUC [SS1 - 48]	17.3
AAAAAAAAAUCACAGGAUAUACAAAAAAAAACAUGAGGAUCACCCAUGUAAAAAAAAAAAAAAAAGUAGAAGGGUGAUCCAAAAAA	12.1
AAGAAACAUGAGGAUCACCCAUGUAGAAAUAUGGGAGGAUAUACAAAGACGAAAGUCAAAGUAGAAGGCCUAAGAA [Mat - Same State 1 - Meechl mod - D129]	16.6
AAAAAACAUGAGGAUCACCCAUGUGCAAAAUUCGCAGGAUAUUCUUUUUUUAAAUGGGAGGGAGAAGGGUGUAAAA [Nob's Hobby 20 - Jieux - Same State 1]	20.8
AUAUGAGCUAUGGAGGAUAUCCAUAACAAGACAUGAGGAUCACCCAUGUAAUCAAAACAAUAAUGGGAGAAGGCCAUAGCUCAAU [SS 2 M47]	76.3
UAAAAACAUGAGGAUCACCCAUGUAGAAAUAUGGGAGGAUAUACAAAGACGAAAGUCAAAGUAGAAGGCCUAAAAU [Mat - Same State 1 - Eli mod - 32]	16.5
GUGGUACAUGAGGAUCACCCAUGUGUGGGAGCAUGAGGAUAUGUCAGUCCAUGAAAUACGAUAGAAGGCAUGGUGA [JR_SS001_Sub1712]	234
AAAUAACAUGAGGAUCACCCAUGUUGCAACGGUACAGGAUAUGUGGGUGAAAAUAGCAUGACAGAAGGGUAGUGUA [SameState1 Malc#30]	207

Sequence	apparent KD of MS2 coat protein [nM]
ACCCGAAAGACGUAGGAUAUGUGGUCACCGACAUGAGGAUCACCCAUGUAUGCGGGAGAAUGGGUGCAGAAGGACGCUGUUCGGU [Antilera]	21.9
AAGAAACAUGAGGAUCACCCAUGUAAUAAUAUGGGAGGAUAUACAAGGACGUAAGUCAAGGUAGAAGGCCUAAGAA [Mat - Same State 1 - Meechl mod - D141]	21
AAAUAACAUGAGGAUCACCCAUGUGGGCUUAAGCAAGGAUAUGGGCACUCAAAAGUAGCGCCAGAAGGUGCAGUCG [Anrabitien]	56.1
AAAAAACAAAGAGAGGAUAUCCAAAAAAAAACAUGAGGAUCACCCAUGUAAAGAAAUUUAAAAUGGGAGAAGGCUCUUUGAAAAA [Same State 2.6b ( Helter Skelter 1)]	33.4
AAAAGAGCGACACAGGAUAUGUUGACUCUAACAUGAGGAUCACCCAUGUGCAUUUAGGGUCGUGCGCAGAAGGGUGUAGCUCGGA [Laesbibiti]	11.7
AGGAAACAUGAGGAUCACCCAUGUAAGAUAUACACAGGAUAUGCGAAAAGAAACAAAGAAGCAGAAGGGUGGAAAA [75%, Ex sub1, 11]	16.5
AAUAUAUUAAGCGAGGAUAUCGAGGAAAAAACAUGAGGAUCACCCAUGUGGGUAAAAAAAAAAAGUGAGAAGGUGCUUAAUAUAU [Samwise Clockwise 9 - Jieux - Same State 2]	31.8
AUAACAACGUAUGAGGAUAUCCAUAAUAAAACAUGAGGAUCACCCAUGUGAAUAAAAUAACAAUGGGAGAAGGCAUACGUACAAU [SS 2 M 51]	12.1
AAUAACAAAAGAAAGGAUAUGCGCACAGGAACAUGAGGAUCACCCAUGUGGCCCGAAAGGGCAUAGCAGAAGGUUCACACGCAUA [Default title]	32.7
GAGAGACAUGAGGAUCACCCAUGUAGGAUUAUGGGAGGAUAUACAAAGACGAGAGUCAGAGUAGAAGGCCUAGGAC [salish99-ss1-140]	23.4
GCAGGGCCACACUAGGAUAUGGGUGUCUAGACAUGAGGAUCACCCAUGUUAUGGCAAAACAAAGCUCAGAAGGAGUCGUGGCCCA [Tizasozaer]	11.8
ACAAUACAUGAGGAUCACCCAUGUUAGCUGGGCGAAGGAUAUGUAGAUGGAUAAAAAUAUGCAGAAGGUCGAUAAC [JR_SS001_Sub209]	68.7
AAAAAACAAAGAGAGGAUAUCCUGAAAAAAACAUGAGGAUCACCCAUGUAAAGAAAUUUAAAAUGGGAGAAGGCUCUUUGAAAAA [Same State 2.6c ( Helter Skelter 1)]	24.6
AAAACACAUGAGGAUCACCCAUGUAGAAAUACGGGAGGAUAUACGAAAACGAAAGACAAAGUAGAAGGCCUAAAAG [saturn 7]	38.7
GCCUAACAUGAGGAUCACCCAUGUAGUGGGUUGUUAGGAUAUGGGCCGCAUUACGCUGCACCAGAAGGAAUAGAAG [Rasoraer]	319
AGGAGACAUGAGGAUCACCCAUGUGAGAAGAGGCGAGGAUAUCGAAAGAAAGAAGAGAAACGAGAAGGCGCGAGGA [salish99-SS1-019]	29.8
